Assay results from patent publication EP4471049A1 (Zealand Pharma A/S, priority 2023, dated 2024).
Where two headings read alike, the source gives them in different places. Blank lines part the entries; values can stand above or below the molecule they belong to. *1 amine or outer side, *2 acyl side, *3 side chain or, on linkers, in order; H or OH if unused. Where a SMILES comes first, the peptide text is derived from it. Bridges are numbered along the chain shown (N, C = ends). Where no end group is shown, it is not given here. [ ]: non-standard residue; d: D form. 4‑Aminomethyl‑phenylacetyl = 4-aminomethyl-phenylacetyl unit, its amine closes the lactam, O=C(Cc1ccc(CN[*:1])cc1)[*:2]; 2Nal = N[C@@H](Cc1ccc2ccccc2c1)C(=O)O; AEF = NCCOc1ccc(C[C@H](N)C(=O)O)cc1; X1 = O=C(Cc1ccc(CN[*:1])cc1)[*:2]; 3Pal = N[C@@H](Cc1cccnc1)C(=O)O; αMeL = CC(C)C[C@](C)(N)C(=O)O; β3hL = CC(C)C[C@H](N)CC(=O)O; 3Amb = NCc1cccc(C(=O)O)c1; Dab = NCC[C@H](N)C(=O)O

Legend:
human IL-23R = biological target: T1, human IL-23R (Homo sapiens, UniProt Q5VWK5); assay: biochemical
T1 sequence (Q5VWK5 22-629): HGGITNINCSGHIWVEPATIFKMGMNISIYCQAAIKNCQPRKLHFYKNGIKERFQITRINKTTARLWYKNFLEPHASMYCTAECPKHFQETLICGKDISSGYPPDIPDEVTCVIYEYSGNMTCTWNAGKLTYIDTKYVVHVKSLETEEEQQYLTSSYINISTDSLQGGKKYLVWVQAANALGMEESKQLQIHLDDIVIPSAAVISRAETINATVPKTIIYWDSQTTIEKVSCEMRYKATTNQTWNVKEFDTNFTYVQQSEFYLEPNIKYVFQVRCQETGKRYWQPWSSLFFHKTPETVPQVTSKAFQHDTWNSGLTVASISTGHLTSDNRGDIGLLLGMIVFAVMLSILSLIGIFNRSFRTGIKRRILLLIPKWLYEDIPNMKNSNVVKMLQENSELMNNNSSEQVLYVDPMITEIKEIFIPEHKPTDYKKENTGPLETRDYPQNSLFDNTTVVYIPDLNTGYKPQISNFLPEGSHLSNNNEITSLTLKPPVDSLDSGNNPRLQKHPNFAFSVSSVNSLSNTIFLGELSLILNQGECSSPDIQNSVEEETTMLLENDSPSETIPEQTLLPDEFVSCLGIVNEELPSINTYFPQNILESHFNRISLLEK
Outline: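 Membranes from HEK293 cells stably expressing Nluc-tagged human IL-23R were incubated 2 h at room temperature with test compound and a fluorophore-labelled tracer. After substrate addition, loss of BRET (TAMRA over luciferase emission) reported tracer displacement. A 4PL fit gave IC50 values.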

[1] = biological target: IL-23 mediated STAT3 signalling (Homo sapiens, UniProt Q5VWK5); assay: Functional inhibition of IL-23 mediated STAT3 signalling (phospho-STAT3 Tyr705 MSD, DB cells); format: cell-based
Method: The ability of compounds to inhibit IL-23 mediated signalling was determined in the human-derived DB cell line (CRL-2289) (hereafter referred to as DB cells), which endogenously expresses the human IL-23R and human IL-12R β1 subunits. Upon binding of IL-23, the IL-23R forms a heterodimer signalling complex together with IL-12R β1, which through the JAK2/STAT3 pathway promotes phosphorylation of STAT3 to form phospho-STAT3. In the assay, the functional antagonism of IL-23 mediated phospho-STAT3 formation in DB cells by the compound is quantified using reagents capable of measuring the phosphorylation state of Tyr705 of STAT3 in the form of a phospho-STAT3 (Tyr705) MSD (Meso Scale Discovery) kit.
[…]. For compounds tested in this assay, the response was normalized relative to control values to calculate the IC50 and maximal inhibitory response from a concentration response curve of the compound in presence of a fixed concentration of human IL-23.
The assay procedure was as follows. DB cells were maintained in growth medium consisting of RPMI-1640 [Invitrogen 61870-010] supplemented with 10% V/V Foetal Bovine Serum (FBS) [(heat inactivated), Invitrogen 10270-106], and 1% V/V Penicillin-Streptomycin (Pen-Strep) Solution [Invitrogen 15140]. On the day of assay, cells were resuspended in Assay buffer consisting of RPMI-1640 [Invitrogen 61870-010] supplemented with 0.1 % w/V BSA [Sigma-Aldrich A9430] to a density of 7.5x10^6 cells/mL. Compounds to be tested for inhibition of hIL-23 mediated signalling were serially diluted in Assay buffer to 3X the final concentration. A solution of hIL-23 corresponding to 3X the EC80 of hIL-23 (1.7 nM) was also prepared in Assay buffer. To initiate the assay, 20 µL of DB cell suspension (corresponding to 150.000 cells/well) was added to the wells of a 96-well V-bottom Polypropylene plate [Corning 3363] followed by addition of 3X 20 µL of the diluted test compounds to separate wells. Following preincubation of the DB cells with inhibitor for 15 min in a cell incubator (37 °C, 5% CO2), 20 µL of the prepared 3X the EC80 of hIL-23 solution was added to each well and incubated for 90 min in a cell incubator (37 °C, 5% CO2). For some wells buffer only or IL-23 only corresponding to the EC80 was added to obtain readouts needed for normalization. To terminate the assay, the plate was spun at 1000 G for 5 min to pellet cells, the supernatant removed using an 8-channel manual pipette, and then added 50 µL/well Complete Lysis Buffer from the MSD STAT3 kit (Cat# K150SVD, Mesoscale) to the cell pellet. To completely lyse cells to release phospho-STAT3 for detection, the plate was shaken for 10 min at room temperature (500 rpm) sealed with aluminium foil and placed at -80 °C for a minimum of 15 min. Detection of the phospho-STAT3 level in the cell lysate from the individual wells was determined using the MSD STAT3 kit (Cat# K150SVD, Mesoscale) and read on a Meso QuickPlex SQ 120 plate reader (Mesoscale).
For data analysis raw data counts from the Meso QuickPlex SQ 120 plate reader were normalized relative to the response by the EC80 of hIL-23 alone (no compound added) and the buffer level. Compound potency (IC50) and maximal inhibitory response (% inhibition) were estimated by computer-aided curve fitting using a 4-parameter logistic (4PL) non-linear model. […]. Typically compounds with a low IC50 are desired. Typically compounds capable of completely inhibiting the IL23-induced response are desired. […]. Table 3-2: hIL-23 (pSTAT3) antagonist IC50 and % inhibition data

[2] = biological target: T2, human IL-23R endogenously expressed on DB cells (human, UniProt Q5VWK5 24-629); assay: cell-based or functional assay
T2 sequence (looked up): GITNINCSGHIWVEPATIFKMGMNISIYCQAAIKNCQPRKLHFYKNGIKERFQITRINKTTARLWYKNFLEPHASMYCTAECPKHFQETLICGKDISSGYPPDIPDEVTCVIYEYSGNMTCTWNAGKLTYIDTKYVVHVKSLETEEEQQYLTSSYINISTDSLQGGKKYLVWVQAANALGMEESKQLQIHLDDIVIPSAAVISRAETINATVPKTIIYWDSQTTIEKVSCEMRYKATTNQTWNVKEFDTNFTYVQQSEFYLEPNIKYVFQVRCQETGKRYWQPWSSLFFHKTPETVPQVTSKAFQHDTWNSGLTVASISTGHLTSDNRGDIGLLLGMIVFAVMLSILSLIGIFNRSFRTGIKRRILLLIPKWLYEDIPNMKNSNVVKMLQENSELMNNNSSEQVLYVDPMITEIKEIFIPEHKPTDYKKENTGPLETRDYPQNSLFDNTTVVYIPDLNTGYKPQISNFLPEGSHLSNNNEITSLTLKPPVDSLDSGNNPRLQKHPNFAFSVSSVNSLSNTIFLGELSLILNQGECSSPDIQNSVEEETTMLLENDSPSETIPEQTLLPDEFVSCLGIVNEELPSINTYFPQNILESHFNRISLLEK

[3] = biological target: T3, Nluc-IL23R fusion protein (human, UniProt Q5VWK5 22-629); assay: Ki from BRET competition (Cheng-Prusoff), Nluc-IL23R membranes
T3 construct: range 22-629; expressed with a secretion signal in HEK293 cells; used as crude membrane preparation; also called hIL-23R; human IL-23R; not shown: Nanoluc protein from the expression plasmid N1371 (Promega), N-terminal of IL-23R
T3 sequence (looked up): T1 sequence (Q5VWK5 22-629)

[4] = biological target: T3, Nluc-IL23R fusion protein; assay: BRET competition vs TAMRA-labelled peptide, Nluc-IL23R membranes
[5] = biological target: T3, Nluc-IL23R fusion protein; assay: as above; remark: listed apart in the source

Molecule: CC(C)C[C@@H](CC(N)=O)NC(=O)[C@H](Cc1cccnc1)NC(=O)[C@H](CCN)NC(=O)[C@@H]1CCC(=O)NCc2ccc(cc2)CC(=O)N[C@@H](CO)C(=O)N[C@H]2CCC(=O)NCC[C@H](NC(=O)[C@H](CCC(N)=O)NC(=O)[C@H](Cc3c[nH]c4ccccc34)NC2=O)C(=O)N[C@@H](Cc2ccc(OCCN)cc2)C(=O)N[C@@H](Cc2ccc3ccccc3c2)C(=O)N[C@@](C)(CC(C)C)C(=O)N1 [Compound 11, [4-Aminomethyl-phenylacetyl](1c)*SE(2c)WQ[Dab](2c)[Y(2-aminoethoxy)][2-Nal][2-Me-Leu]E(1c)[Dab][3-(3-Pyridyl)-Ala][beta-hLeu]-[NH2]] ([X1]SEWQ[Dab][AEF][2Nal][αMeL]E[Dab][3Pal][β3hL]-NH2; lactam 3-6, N-10)
- % displacement (hIL-23R binding) (human IL-23R): 103%
- IC50 ([1]; Example 2 (Tables 2-1 to 2-4), read-out: IC50 (pSTAT3)): 0.68 nM

Molecule: CC(C)C[C@]1(C)NC(=O)[C@H](Cc2ccc3ccccc3c2)NC(=O)[C@H](Cc2ccc(OCCN)cc2)NC(=O)[C@@H]2CCNC(=O)CC[C@H](NC(=O)[C@H](CO)NC(=O)Cc3ccc(cc3)CNC(=O)CC[C@@H](C(=O)NCC[C@H](N)C(=O)N[C@@](C)(Cc3cccnc3)C(N)=O)NC1=O)C(=O)N[C@@H](Cc1c[nH]c3ccccc13)C(=O)N[C@@H](CCC(N)=O)C(=O)N2 [Compound 15, [4-Aminomethyl-phenylacetyl](1c)*SE(2c)WQ[Dab](2c)[Y(2-aminoethoxy)][2-Nal][2-Me-Leu]E(1c)[Iso-Dab][2-Me-3-(3-Pyridyl)-Ala]-[NH2]]
- % displacement (hIL-23R binding) (human IL-23R): 96%
- IC50 (human IL-23R): 0.45 nM
- IC50 ([1]; Table 3-2, EC80 of hIL-23, read-out: hIL-23 (pSTAT3) antagonist IC50): 12 nM

B1: Ref 41 (peptide)
peptide: [3Amb]SCWQC[AEF][2Nal][αMeL]E[dR]-NH2
modifications: lactam N-10; bridge 3-6; not fully specified (bridges); printed as [(3-Aminomethyl)benzoyl](1c)*SC(2a)WQC(2a)[Y(2-aminoethoxy)][2-Nal][2-Me-Leu]E(1c)[{d}R]-[NH2]
notes: Y = Y(2-aminoethoxy), R = D-Arg
- hIL-23 (pSTAT3) antagonist % inhibition [2]: 99%
- hIL-23 (pSTAT3) antagonist IC50 [2]: 29 nM
- Ki [3]: 2.31 nM
- IC50 [4]: 2.8 nM
- % displacement (hIL-23R binding) [5]: 110%
- IC50 [5]: 2.8 nM

B3: Ref 17 (peptide)
peptide: Ac-DESCWQCW[2Nal]LKR-NH2
modifications: lactam 2-11; bridge 4-7; not fully specified (bridges); printed as [Ac]-DE(1c)SC(2a)WQC(2a)W[2-Nal]LK(1c)R-[NH2]
- hIL-23 (pSTAT3) antagonist IC50 [2]: 370 nM
- IC50 [4]: 87 nM
- IC50 [5]: 87 nM

B5: Ref 37 (peptide)
peptide: [3Amb]SCWQCW[2Nal]LER-NH2
modifications: lactam N-10; bridge 3-6; not fully specified (bridges); printed as [(3-Aminomethyl)benzoyl](1c)*SC(2a)WQC(2a)W[2-Nal]LE(1c)R-[NH2]
- hIL-23 (pSTAT3) antagonist % inhibition [2]: 89%
- hIL-23 (pSTAT3) antagonist IC50 [2]: 45 nM
- IC50 [4]: 12 nM
- % displacement (hIL-23R binding) [5]: 103%
- IC50 [5]: 12 nM

Molecule: H-DESCWQCWWLKR-NH2 (lactam 2-11; bridge 4-7; not fully specified (bridges)) [Ref 4]
- hIL-23 (pSTAT3) antagonist % inhibition [2]: 87%
- hIL-23 (pSTAT3) antagonist IC50 [2]: 850 nM
- IC50 [4]: 180 nM
- % displacement (hIL-23R binding) [5]: 100%
- IC50 [5]: 180 nM

Further lines, results first:

- hIL-23 (pSTAT3) antagonist % inhibition [2]: 95%
- hIL-23 (pSTAT3) antagonist IC50 [2]: 21 nM
- Ki [3]: 0.318 nM
- IC50 [4]: 0.39 nM
- IC50 [5]: 0.39 nM
B2: Ref 81 (peptide)
peptide: [4‑Aminomethyl‑phenylacetyl]SCWQC[AEF][2Nal][αMeL]ES-NH2
modifications: lactam (positions not given here); bridge 3-6; not fully specified (bridges); printed as [4-Aminomethyl-phenylacetyl](1c)*SC(2a)WQC(2a)[Y(2-aminoethoxy)][2-Nal][2-Me-Leu]E(1c)S-[NH2]
notes: Y = Y(2-aminoethoxy)

- hIL-23 (pSTAT3) antagonist % inhibition [2]: 97%
- hIL-23 (pSTAT3) antagonist IC50 [2]: 18 nM
- IC50 [4]: 3.5 nM
- % displacement (hIL-23R binding) [5]: 103%
- IC50 [5]: 3.5 nM
B4: Ref 18 (peptide)
peptide: Ac-KSCWQCW[2Nal]LER-NH2
modifications: lactam 1-10; bridge 3-6; not fully specified (bridges); printed as [Ac]-K(1c)SC(2a)WQC(2a)W[2-Nal]LE(1c)R-[NH2]

- hIL-23 (pSTAT3) antagonist % inhibition [2]: 103%
- hIL-23 (pSTAT3) antagonist IC50 [2]: 7.8 nM
- Ki [3]: 0.0475 nM
- IC50 [4]: 0.058 nM
- % displacement (hIL-23R binding) [5]: 100%
- IC50 [5]: 0.058 nM
B6: Ref 52 (peptide)
peptide: [4‑Aminomethyl‑phenylacetyl]SCWQC[AEF][2Nal][αMeL]ER-NH2
modifications: lactam N-10; bridge 3-6; not fully specified (bridges); printed as [4-Aminomethyl-phenylacetyl](1c)*SC(2a)WQC(2a)[Y(2-aminoethoxy)][2-Nal][2-Me-Leu]E(1c)R-[NH2]
notes: Y = Y(2-aminoethoxy)
